Kd data for one substance are collected here from PMC12865202.

This test addresses Chicken CapZ (full length α/β) (chicken) (UniProt P13127). Description: ITC.

For the substance “RavB (full length, purified) (natural protein)”, the Kd was 10.8 nM.
